Experiment [1] concerns the target T1, ATF4 (Homo sapiens, UniProt P18848).
T1 construct: made in house
T1 sequence (P18848 278-341 limits assumed): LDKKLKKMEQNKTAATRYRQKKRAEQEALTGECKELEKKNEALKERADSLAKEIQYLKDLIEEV
Kind of experiment: Competition binding assay, unlabeled design vs FITC-labeled design and TAMRA-labeled ATF4. To be noted: unlabeled design mixed with FITC-labeled design and TAMRA-labeled ATF4. On the procedure: In the competition form of the assay, a FRET pair was made by mixing 10 nM of the donor-labeled peptide with a specified concentration of the acceptor-labeled peptide in 1 mM TCEP-HCl, and 20 μL of this solution was added to the wells after unlabeled design was titrated in 2-fold dilutions over the wells to a final concentration ranging from 0 to 2.5 μM. The amount of acceptor used varied for each curve, taking into account the Kd of the FRET complex in order to obtain a good lower baseline for fitting purposes. Samples were equilibrated for one hour before reading the plates; repeated reading of the plates over several hours gave no change in signal.
For the competition experiments, the IC50 was determined in MATLAB by fitting the binding data to the equation signal=a+b−a/(1+x/c)^H , where a and b are the lower and upper baselines, c is the IC50 value, x is the inhibitor concentration, and the Hill coefficient H was set to 1. Ki values were calculated as in Fu et al..

The target of experiment [2] is T2, BACH2 (Homo sapiens, UniProt Q9BYV9). Briefly: FRET or BRET; direct-binding FRET in 384-well plates; rhodamine-labelled design (acceptor) titrated 0 to 1 uM into 10 nM fluorescein-labelled bZIP (donor); 150 mM KCl, 50 mM potassium phosphate pH 7.4, 0.1% Tween-20, 0.1% BSA; 37 °C.
Experiment [3] concerns the target T2, BACH2. Kind of experiment: FRET or BRET; direct-binding FRET in 384-well plates; rhodamine-labelled design (acceptor) titrated 0 to 1 uM into 10 nM fluorescein-labelled bZIP (donor); 150 mM KCl, 50 mM potassium phosphate pH 7.4, 0.1% Tween-20, 0.1% BSA; 4 °C.
Experiment [4] has as its target Activating Transcription Factor (ATF) 3 (human) (UniProt P18847). The experiment is described as above.
Experiment [5] deals with CREB1 (human) (UniProt P16220). Kind of experiment: FRET or BRET; direct-binding FRET in 384-well plates; rhodamine-labelled design (acceptor) titrated 0 to 1 uM into 10 nM fluorescein-labelled bZIP (donor); 150 mM KCl, 50 mM potassium phosphate pH 7.4, 0.1% Tween-20, 0.1% BSA; 37 °C.
The target in experiment [6] is MAFF (human) (UniProt Q9ULX9). Described as above.
In experiment [7] the target is MAFB (Homo sapiens, UniProt Q9Y5Q3). Briefly: FRET or BRET; direct-binding FRET in 384-well plates; rhodamine-labelled design (acceptor) titrated 0 to 1 uM into 10 nM fluorescein-labelled bZIP (donor); 150 mM KCl, 50 mM potassium phosphate pH 7.4, 0.1% Tween-20, 0.1% BSA; 4 °C.
In experiment [8] the target is FOS (Homo sapiens, UniProt P01100). The description is as above.
For experiment [9], the target named is MAF (Homo sapiens, UniProt O75444). The description is as above.
The target of experiment [10] is ATF6B (Homo sapiens, UniProt Q99941). The experiment is described as above.
The target of experiment [11] is BACH1 (Homo sapiens, UniProt O14867). The experiment is described as above.
Experiment [12] has as its target NFIL3 (human) (UniProt Q16649). The description is as above.
Experiment [13] deals with MAFF (human) (UniProt Q9ULX9). The description is as above.
The target in experiment [14] is MAFG (Homo sapiens, UniProt O15525). The experiment is described as above.
In experiment [15] the target is NFE2L3 (human) (UniProt Q9Y4A8). Described as above.

Ki and Kd data for four molecules are collected here from PMC4335062, “Data-Driven Prediction and Design of bZIP Coiled-Coil Interactions” (PLoS Computational Biology, 2015).

Values joined by “and” are separate entries in the source; they are usually repeats but may differ in a detail not shown here. Identical values can stand only once. Where no end group is shown, it is not given here.

Chain of NFIL3 (human) (Q16649 whole entry): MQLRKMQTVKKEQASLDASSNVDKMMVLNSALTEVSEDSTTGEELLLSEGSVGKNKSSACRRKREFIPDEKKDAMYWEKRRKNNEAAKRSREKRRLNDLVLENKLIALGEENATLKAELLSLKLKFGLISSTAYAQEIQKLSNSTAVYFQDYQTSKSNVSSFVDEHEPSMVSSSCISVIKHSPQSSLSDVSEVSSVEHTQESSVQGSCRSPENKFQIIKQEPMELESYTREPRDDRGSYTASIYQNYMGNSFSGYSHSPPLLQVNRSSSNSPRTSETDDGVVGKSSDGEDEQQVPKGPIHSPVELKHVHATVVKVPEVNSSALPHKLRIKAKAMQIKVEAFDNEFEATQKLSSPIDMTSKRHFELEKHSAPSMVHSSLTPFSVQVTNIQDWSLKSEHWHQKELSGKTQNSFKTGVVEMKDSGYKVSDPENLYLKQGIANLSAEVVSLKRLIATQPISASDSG
T2 sequence (Q9BYV9 whole entry): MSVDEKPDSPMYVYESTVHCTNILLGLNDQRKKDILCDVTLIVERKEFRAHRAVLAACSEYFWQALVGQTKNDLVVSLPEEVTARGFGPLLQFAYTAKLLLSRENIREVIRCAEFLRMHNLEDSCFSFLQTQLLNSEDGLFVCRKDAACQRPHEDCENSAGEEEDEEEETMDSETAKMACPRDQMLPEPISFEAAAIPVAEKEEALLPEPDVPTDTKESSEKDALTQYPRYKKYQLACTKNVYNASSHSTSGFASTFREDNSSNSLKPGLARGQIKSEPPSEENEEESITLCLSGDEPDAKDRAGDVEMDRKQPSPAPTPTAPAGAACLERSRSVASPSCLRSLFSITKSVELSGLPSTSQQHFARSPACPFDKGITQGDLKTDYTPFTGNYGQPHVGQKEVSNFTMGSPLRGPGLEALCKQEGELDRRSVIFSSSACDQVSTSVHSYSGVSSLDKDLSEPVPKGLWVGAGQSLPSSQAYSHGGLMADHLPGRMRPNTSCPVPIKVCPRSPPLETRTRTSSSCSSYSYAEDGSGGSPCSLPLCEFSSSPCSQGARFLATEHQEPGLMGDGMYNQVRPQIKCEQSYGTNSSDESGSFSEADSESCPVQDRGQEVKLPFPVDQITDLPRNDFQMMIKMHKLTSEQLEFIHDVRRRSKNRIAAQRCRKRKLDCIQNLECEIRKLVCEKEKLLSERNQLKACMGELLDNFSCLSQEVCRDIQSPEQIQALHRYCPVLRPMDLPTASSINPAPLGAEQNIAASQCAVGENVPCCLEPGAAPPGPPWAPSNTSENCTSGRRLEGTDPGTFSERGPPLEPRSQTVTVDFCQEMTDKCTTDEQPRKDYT
Chain of MAFF (human) (Q9ULX9 whole entry): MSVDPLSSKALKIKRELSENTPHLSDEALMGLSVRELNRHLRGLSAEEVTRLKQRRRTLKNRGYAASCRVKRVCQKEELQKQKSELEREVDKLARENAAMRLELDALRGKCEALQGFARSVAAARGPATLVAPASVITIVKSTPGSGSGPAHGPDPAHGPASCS
Chain of CREB1 (human) (P16220 whole entry): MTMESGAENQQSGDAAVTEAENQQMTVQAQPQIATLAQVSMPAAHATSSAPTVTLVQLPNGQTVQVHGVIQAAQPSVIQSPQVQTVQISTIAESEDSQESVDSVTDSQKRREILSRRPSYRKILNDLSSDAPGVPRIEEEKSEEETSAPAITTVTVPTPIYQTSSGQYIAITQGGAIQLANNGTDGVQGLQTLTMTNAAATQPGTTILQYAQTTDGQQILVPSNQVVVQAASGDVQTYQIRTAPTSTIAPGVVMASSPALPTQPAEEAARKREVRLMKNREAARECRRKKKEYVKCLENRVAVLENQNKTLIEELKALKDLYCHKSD
Chain of NFE2L3 (human) (Q9Y4A8 whole entry): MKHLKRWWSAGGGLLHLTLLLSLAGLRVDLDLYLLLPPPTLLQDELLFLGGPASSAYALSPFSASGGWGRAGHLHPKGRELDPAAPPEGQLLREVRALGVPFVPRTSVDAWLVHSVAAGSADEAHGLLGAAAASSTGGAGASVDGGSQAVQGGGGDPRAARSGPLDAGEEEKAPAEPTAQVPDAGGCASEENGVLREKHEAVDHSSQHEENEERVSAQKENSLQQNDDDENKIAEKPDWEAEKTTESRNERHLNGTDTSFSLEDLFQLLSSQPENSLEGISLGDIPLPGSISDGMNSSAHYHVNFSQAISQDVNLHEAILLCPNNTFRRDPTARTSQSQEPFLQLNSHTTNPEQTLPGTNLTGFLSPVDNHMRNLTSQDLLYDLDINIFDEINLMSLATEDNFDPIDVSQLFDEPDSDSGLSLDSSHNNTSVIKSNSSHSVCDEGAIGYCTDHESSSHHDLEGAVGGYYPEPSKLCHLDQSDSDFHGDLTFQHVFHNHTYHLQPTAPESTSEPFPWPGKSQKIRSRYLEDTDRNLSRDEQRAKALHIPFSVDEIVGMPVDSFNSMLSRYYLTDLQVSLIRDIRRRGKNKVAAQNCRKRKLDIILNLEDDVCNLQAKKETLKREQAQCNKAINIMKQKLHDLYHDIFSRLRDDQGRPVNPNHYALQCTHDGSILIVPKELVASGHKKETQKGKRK
Chain of ATF6B (Q99941 whole entry): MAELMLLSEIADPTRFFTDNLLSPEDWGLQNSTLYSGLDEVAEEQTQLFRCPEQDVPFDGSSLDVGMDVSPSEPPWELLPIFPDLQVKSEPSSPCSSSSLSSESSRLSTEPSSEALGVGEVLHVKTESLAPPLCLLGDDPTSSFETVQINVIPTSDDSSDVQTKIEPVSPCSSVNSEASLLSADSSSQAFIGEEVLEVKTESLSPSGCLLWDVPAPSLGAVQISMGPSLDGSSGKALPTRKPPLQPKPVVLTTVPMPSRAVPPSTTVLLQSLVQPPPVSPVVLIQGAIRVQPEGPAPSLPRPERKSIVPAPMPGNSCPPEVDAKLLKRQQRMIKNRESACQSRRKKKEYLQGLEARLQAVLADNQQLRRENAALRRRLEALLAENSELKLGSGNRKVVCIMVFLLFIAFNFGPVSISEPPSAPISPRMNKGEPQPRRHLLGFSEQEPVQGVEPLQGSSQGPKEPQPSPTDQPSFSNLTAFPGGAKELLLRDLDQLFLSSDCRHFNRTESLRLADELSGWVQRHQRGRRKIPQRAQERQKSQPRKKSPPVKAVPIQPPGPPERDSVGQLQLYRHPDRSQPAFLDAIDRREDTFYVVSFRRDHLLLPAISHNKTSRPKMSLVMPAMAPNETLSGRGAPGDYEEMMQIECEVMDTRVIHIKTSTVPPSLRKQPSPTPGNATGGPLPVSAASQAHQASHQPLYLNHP
Chain of Activating Transcription Factor (ATF) 3 (human) (P18847 whole entry): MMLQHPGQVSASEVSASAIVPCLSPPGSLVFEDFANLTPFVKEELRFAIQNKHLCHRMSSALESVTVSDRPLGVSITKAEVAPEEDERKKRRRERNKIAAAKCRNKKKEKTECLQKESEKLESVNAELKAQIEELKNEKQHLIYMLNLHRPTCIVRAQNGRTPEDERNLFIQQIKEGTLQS
Chain of MAF (O75444 whole entry): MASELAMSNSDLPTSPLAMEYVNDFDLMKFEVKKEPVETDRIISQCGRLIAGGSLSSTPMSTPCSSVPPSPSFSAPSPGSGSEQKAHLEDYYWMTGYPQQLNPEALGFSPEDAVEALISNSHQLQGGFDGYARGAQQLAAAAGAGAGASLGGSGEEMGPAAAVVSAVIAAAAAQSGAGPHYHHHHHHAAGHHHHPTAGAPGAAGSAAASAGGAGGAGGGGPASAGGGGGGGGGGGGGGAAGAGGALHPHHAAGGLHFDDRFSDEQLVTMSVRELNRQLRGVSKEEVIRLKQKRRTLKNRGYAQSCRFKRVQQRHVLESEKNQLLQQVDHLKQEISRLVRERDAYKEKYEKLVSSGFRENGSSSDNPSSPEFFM
Chain of FOS (P01100 whole entry): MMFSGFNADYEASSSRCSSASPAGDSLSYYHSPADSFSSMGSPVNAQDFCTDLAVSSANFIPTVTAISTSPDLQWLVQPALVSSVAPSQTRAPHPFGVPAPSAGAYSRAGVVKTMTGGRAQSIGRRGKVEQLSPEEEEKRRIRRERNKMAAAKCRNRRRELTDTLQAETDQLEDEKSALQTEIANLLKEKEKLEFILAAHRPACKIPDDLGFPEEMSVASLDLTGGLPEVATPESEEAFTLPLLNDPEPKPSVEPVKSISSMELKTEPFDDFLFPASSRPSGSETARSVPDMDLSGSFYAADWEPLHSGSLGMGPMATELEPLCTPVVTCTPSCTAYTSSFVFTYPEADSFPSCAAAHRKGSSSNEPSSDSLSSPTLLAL
Chain of MAFB (Q9Y5Q3 whole entry): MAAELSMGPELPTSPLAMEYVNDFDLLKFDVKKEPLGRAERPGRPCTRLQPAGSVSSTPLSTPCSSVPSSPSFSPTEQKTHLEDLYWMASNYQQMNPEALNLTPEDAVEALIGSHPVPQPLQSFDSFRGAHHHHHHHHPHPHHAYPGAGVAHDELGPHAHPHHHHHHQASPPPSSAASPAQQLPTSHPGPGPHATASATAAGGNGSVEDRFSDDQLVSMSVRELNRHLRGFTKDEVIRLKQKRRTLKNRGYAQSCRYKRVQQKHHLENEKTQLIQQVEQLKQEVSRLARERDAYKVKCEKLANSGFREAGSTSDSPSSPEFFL
Chain of MAFG (O15525 whole entry): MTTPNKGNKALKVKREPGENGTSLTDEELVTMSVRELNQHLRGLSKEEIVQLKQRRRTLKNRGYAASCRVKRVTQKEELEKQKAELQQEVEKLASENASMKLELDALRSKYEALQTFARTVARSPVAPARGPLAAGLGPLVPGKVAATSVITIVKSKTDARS

As for “KRIAYLRQRIAELRNENHVLESRIQRMEKEKDALQQDRDHLEYEL [ATF5-d1]”, the Ki in [1] was 6 nM.

With “NQIKTLRTRLSKLRKDNLQLEKDIANLERKAKDLRAEKEQLEYEL [ATF4-d1]”, the affinity in experiment [1] corresponds to a Ki of 48 nM.

B1: ATF5-d1 labeled at the C-terminus (designed binder)
chain: GESKEYKKGSGSKRIAYLRQRIAELRNENHVLESRIQRMEKEKDALQQDRDHLEYELGC(Rhodamine Red C2‑maleimide)
modifications: not fully specified
B1: the Kd in experiment [2], in experiment [3] and in experiment [4] was greater than 5000 nM in each case.

B2: ATF4-d1 labeled at the C-terminus (designed binder)
chain: GESKEYKKGSGSNQIKTLRTRLSKLRKDNLQLEKDIANLERKAKDLRAEKEQLEYELGC
modifications: also: C59 label by assay: Rhodamine Red C2-maleimide or fluorescein-5-maleimide
notes: solubility linker after the His6 tag; added to the C-terminus for labeling; one molecule for the rhodamine- and the fluorescein-labelled form; the assay tells which label stood there; also called ATF4-d1-Rhodamine; ATF4-d1-FITC; source: E. coli RP3098, purified (Ni-NTA under denaturing conditions, reverse-phase HPLC)
Turning to B2, the Kd was greater than 5000 nM in experiment [5]; 327 nM in [6]; greater than 5000 nM in [7]; 1000 nM in experiment [8]; greater than 5000 nM in experiment [9]; 1000 nM in experiment [10]. The Kd in experiment [11] was greater than 5000 nM; in [12] it was 22.8 nM and 23.3 nM and 22.6 nM; in experiment [13] it was greater than 5000 nM; in experiment [14] it was 1000 nM; in [15] it was 1000 nM.
